Data taken from US20090041763A1 (UNIVERSITY OF ULSAN FOUNDATION FOR INDUSTRY COOPERATION, published 2009).

Target: T1, 4-1BB-GST fusion protein (human 4-1BB fused to glutathione-S-transferase, expressed in E. coli) (human, UniProt Q07011 24-186)
T1 construct: The order of the parts follows the printed name 4-1BB-GST; not shown: glutathione-S-transferase (GST) from the pGEX3 vector (Pharmacia)
Experiment: ELISA, transfectant culture supernatant on 4-1BB-GST antigen; reference is 293 EBNA cultured supernatant
Description: The completely humanized sequence to constant region was subcloned to pcDNA, a eukaryote expressing vectors, transfected into 293EBNA cells and serial analyses i.e., ELISA and western blotting analysis were performed using by the cell medium. 4-1BB-GST was used as an antigen for ELISA and each 50 numbers of transfectant medium was used therein.

B1: completely humanized antibody HBBK4-75 (H2L2) (antibody, V domains shown)
VH: QVQLQQSGAEVIKPGASVKLSCKASGYTFSSYWMHWVRQAPGQGLEWIGEINPGNGHTNYNEKFKSRATLTGDTSTSTVYMELSSLRSEDTAVYYCARSFTTARAFAYWGQGTLVTVSS
VL: DIVMTQSPAFLSVTPGEKVTITCRASQTISDYLHWYQQKPDQAPKLLIKYASQSISGIPSRFSGSGSGTDFTFTISSLEAEDAATYYCQDGHSFPPTFGQGTKLEIKT
notes: the VH is the same in both; also called clone 75; HBBK4-75/pcDNA
B1 was tested, and the “fold over negative control (ELISA)” value was ~15 times.
